# From US20150203577A1 (Chugai, published 2015)
# Positions count from the first letter of the chain named. Where “and” joins values, the source holds several entries; their conditions need not be identical. Equal values may be shown once.
# T1: mouse FcγRII extracellular domain, C-terminally His-tagged (mouse, UniProt P08101 30-210)
# T1 construct: the whole entry is named; also called mFcγRII; mFcgRII
# T1 sequence: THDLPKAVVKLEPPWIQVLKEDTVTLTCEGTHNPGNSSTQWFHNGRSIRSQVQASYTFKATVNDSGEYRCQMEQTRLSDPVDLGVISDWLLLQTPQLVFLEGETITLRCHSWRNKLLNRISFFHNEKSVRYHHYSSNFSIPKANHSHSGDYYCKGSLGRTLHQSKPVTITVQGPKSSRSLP
# T2: mouse FcγRIII extracellular domain, C-terminally His-tagged (mouse, UniProt P08508 31-215)
# T2 construct: the whole entry is named; also called mFcγRIII; mFcgRIII
# T2 chain: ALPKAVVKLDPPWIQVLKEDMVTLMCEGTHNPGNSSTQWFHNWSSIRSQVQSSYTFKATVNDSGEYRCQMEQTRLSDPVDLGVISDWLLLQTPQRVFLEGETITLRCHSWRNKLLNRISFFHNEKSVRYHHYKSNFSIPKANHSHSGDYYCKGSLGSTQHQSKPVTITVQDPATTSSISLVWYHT
# T3: mouse FcγRII (mouse, UniProt P08101 30-210)
# T3 construct: Extracellular domain with C-terminal His tag, made in FreeStyle 293 cells; also called mFcγRII; mFcgRII
# T3 sequence: T1 sequence
# T4: mouse FcγRIII (mouse, UniProt P08508 31-215)
# T4 construct: Extracellular domain with C-terminal His tag, made in FreeStyle 293 cells; also called mFcγRIII; mFcgRIII
# T4 chain: T2 chain
# T5: mouse FcγRII extracellular domain, C-terminal His tag (mouse, UniProt P08101 30-210)
# T5 construct: Whole entry named; also called mFcγRII; mFcgRII
# T5 sequence: T1 sequence
# T6: mouse FcγRIII extracellular domain, C-terminal His tag (mouse, UniProt P08508 31-215)
# T6 construct: Whole entry named; also called mFcγRIII; mFcgRIII
# T6 chain: T2 chain
# B1: H237-MB623/MRAL-k0 (antibody, mouse IgG1, kappa)
# heavy: QVQLQESGPGLVKPSETLSLTCAVSGHSISHDHAWSWVRQPPGEGLEWIGFISYSGITNYNPSLQGRVTISRDNSKNTLYLQMNSLRAEDTAVYYCARSLARTTAMDYWGEGTLVTVSSAKTTPPSVYPLAPGSAAQTNSMVTLGCLVKGYFPEPVTVTWNSGSLSSGVHTFPAVLQSDLYTLSSSVTVPSSTWPSETVTCNVAHPASSTKVDKKIVPRDCGCKPCICEAYEVELVFIFPPKPKDVLTITLTPKVTCVVVDISKDDPEVQFSWFVDDVEVHTAQTQPREEQFNSTFRSVSELPIMHQDWLNGKEFKCRVNSAAFPAPIEKTISKTKGRPKAPQVYTIPPPKEQMAKDKVSLTCMITDFFPEDITVEWQWNGQPAENYKNTQPIMDTDGSYFVYSKLNVQKSNWEAGNTFTCSVLHEGLHNHHTEKSLSHSPGK
# light: not shown
# notes: copies: 2 + 2
# B2: H237-MB626/MRAL-k0 (antibody, mouse IgG1, kappa)
# heavy: B1 heavy with A230T
# light: not shown
# notes: copies: 2 + 2
# B3: H237-MB625/MRAL-k0 (antibody, mouse IgG1, kappa)
# heavy: B1 heavy with A230N
# light: not shown
# notes: copies: 2 + 2
# B4: H237-MB624/MRAL-k0 (antibody, mouse IgG1, kappa)
# heavy: B1 heavy with A230D
# light: not shown
# notes: copies: 2 + 2
# B5: H237-MB627/MRAL-k0 (antibody, mouse IgG1, kappa)
# heavy: B1 heavy with A230V
# light: not shown
# notes: copies: 2 + 2
# B6: H237-MB645/MRAL-k0 (antibody, mouse IgG1, kappa)
# heavy: B1 heavy with A230V, L235Y
# light: not shown
# notes: copies: 2 + 2
# B7: H237-MB594/MRAL-k0 (antibody, mouse IgG1, kappa)
# heavy: B1 heavy with A230V, Y231P, V233E, L235S
# light: not shown
# notes: copies: 2 + 2
# B8: H237-MB676/MRAL-k0 (antibody)
# heavy: B1 heavy with A230P, Y231N, L235K
# light: not shown
# notes: copies: 2 + 2
# B9: H237-MB683/MRAL-k0 (antibody)
# heavy: B1 heavy with A230T, Y231K, L235D
# light: not shown
# notes: copies: 2 + 2
# B10: H237-MB681/MRAL-k0 (antibody)
# heavy: B1 heavy with A230P, Y231K, L235D
# light: not shown
# notes: copies: 2 + 2
# B11: H237-MB608/MRAL-k0 (antibody, mouse IgG1, kappa)
# heavy: B1 heavy with E229T, A230V, Y231P, L235E, F237D
# light: not shown
# notes: copies: 2 + 2
# B12: H237-MB621/MRAL-k0 (antibody, mouse IgG1, kappa)
# heavy: B1 heavy with E229T, A230V, Y231P, E234D, L235E
# light: not shown
# notes: copies: 2 + 2
# B13: H237-MB614/MRAL-k0 (antibody, mouse IgG1, kappa)
# heavy: B1 heavy with E229T, A230V, Y231P, V233E, L235D
# light: not shown
# notes: copies: 2 + 2
# B14: H237-MB613/MRAL-k0 (antibody, mouse IgG1, kappa)
# heavy: B1 heavy with E229T, A230V, Y231P, E234D, L235E, S263M
# light: not shown
# notes: copies: 2 + 2
# B15: H237-MB678/MRAL-k0 (antibody)
# heavy: B1 heavy with A230V, Y231K, L235D
# light: not shown
# notes: copies: 2 + 2
# B16: H237-MB611/MRAL-k0 (antibody, mouse IgG1, kappa)
# heavy: B1 heavy with E229T, A230V, Y231P, V233E, E234D, L235E
# light: not shown
# notes: copies: 2 + 2
# B17: H237-MB679/MRAL-k0 (antibody)
# heavy: B1 heavy with A230D, Y231K, L235D
# light: not shown
# notes: copies: 2 + 2
# B18: H237-MB682/MRAL-k0 (antibody)
# heavy: B1 heavy with A230P, Y231K, L235D
# light: not shown
# notes: copies: 2 + 2
# B19: H237-MB616/MRAL-k0 (antibody, mouse IgG1, kappa)
# heavy: B1 heavy with E229T, A230V, Y231P, L235D, S263M
# light: not shown
# notes: copies: 2 + 2
# B20: H237-MB618/MRAL-k0 (antibody, mouse IgG1, kappa)
# heavy: B1 heavy with E229T, A230V, Y231P, V233E, E234D, L235D
# light: not shown
# notes: copies: 2 + 2
# B21: H237-MB619/MRAL-k0 (antibody, mouse IgG1, kappa)
# heavy: B1 heavy with E229T, A230V, Y231P, E234D, L235D, F237D
# light: not shown
# notes: copies: 2 + 2
# B22: H237-MB609/MRAL-k0 (antibody, mouse IgG1, kappa)
# heavy: B1 heavy with E229T, A230V, Y231P, L235E, S263M
# light: not shown
# notes: copies: 2 + 2
# B23: H237-MB680/MRAL-k0 (antibody)
# heavy: B1 heavy with A230N, Y231K, L235D
# light: not shown
# notes: copies: 2 + 2
# B24: H237-MB617/MRAL-k0 (antibody, mouse IgG1, kappa)
# heavy: B1 heavy with E229T, A230V, Y231P, V233E, E234S, L235D, F237D
# light: not shown
# notes: copies: 2 + 2
# B25: H237-MB615/MRAL-k0 (antibody, mouse IgG1, kappa)
# heavy: B1 heavy with E229T, A230V, Y231P, L235D, F237D
# light: not shown
# notes: copies: 2 + 2
# B26: H237-MB622/MRAL-k0 (antibody, mouse IgG1, kappa)
# heavy: B1 heavy with E229T, A230V, Y231P, E234D, L235D
# light: not shown
# notes: copies: 2 + 2
# B27: H237-MB620/MRAL-k0 (antibody, mouse IgG1, kappa)
# heavy: B1 heavy with E229T, A230V, Y231P, E234D, L235D, S263M
# light: not shown
# notes: copies: 2 + 2
# B28: H237-MB612/MRAL-k0 (antibody, mouse IgG1, kappa)
# heavy: B1 heavy with E229T, A230V, Y231P, E234D, L235E, F237D
# light: not shown
# notes: copies: 2 + 2
# B29: H237-MB684/MRAL-k0 (antibody)
# heavy: B1 heavy with E229Q, A230P, Y231K, L235D
# light: not shown
# notes: copies: 2 + 2
# B30: H237-MB607/MRAL-k0 (antibody, mouse IgG1, kappa)
# heavy: B1 heavy with E229T, A230V, Y231P, V233E, L235E
# light: not shown
# notes: copies: 2 + 2
# Biological target: T1, mouse FcγRII extracellular domain, …
# Test: SPR Biacore T200, KD ratio
# Procedure: (§1) Each altered antibody was analyzed for its interaction with each Fcγ receptor prepared above using Biacore T100 (GE Healthcare Japan Corp.), Biacore T200 (GE Healthcare Japan Corp.), Biacore A100, or Biacore 4000. The running buffer used was HBS-EP+ (GE Healthcare Japan Corp.). The assay temperature was set to 25° C. The sensor chips used were chips prepared by immobilizing Protein L (ACTIGEN or BioVision) onto Series S Sensor Chip CM5 (GE Healthcare Japan Corp.) or Series S Sensor Chip CM4 (GE Healthcare Japan Corp.) by the amine coupling method.
# (§2) In order to calculate the KD value of each altered antibody for FcγR, kinetic analysis was conducted according to the following method: first, the antibody of interest was captured onto any of these chips and allowed to interact with mFcγR diluted with a running buffer. For the obtained sensorgram, the assay results were globally fit into the 1:1 Langmuir binding model using Biacore Evaluation Software to calculate an association rate constant ka (L/mol/s) and a dissociation rate constant kd (1/s). From these values, the dissociation constant KD (mol/L) was calculated.
row,Binder,relative mFcγRII-binding activity (mIgG1 = 1) [fold]
1,B1,0.53
2,B2,0.81
3,B3,0.67
4,B4,0.8
5,B5,0.32

# Biological target: T2, mouse FcγRIII extracellular domain, …
# Test: SPR Biacore T200, KD ratio
# Procedure: as §1, §2
row,Binder,relative mFcγRIII-binding activity (mIgG1 = 1) [fold]
1,B1,0.09
2,B2,0.12
3,B3,0.12
4,B4,0.1
5,B5,0.09

# Biological target: T3, mouse FcγRII
# Test: SPR (Biacore), antibody captured on Protein L
# Procedure: as §1, §2
row,Binder,Kd
1,B6,0.18 µM and 0.307 µM
2,B7,0.115 µM and 0.25 µM

# Biological target: T4, mouse FcγRIII
# Test: SPR (Biacore), antibody captured on Protein L
# Procedure: as §1, §2
row,Binder,Kd
1,B6,1.42 µM and 2.36 µM
2,B7,3.23 µM and 9.03 µM

# Biological target: T5, mouse FcγRII extracellular domain, …
# Test: SPR (Biacore T200); KD of H237-mIgG1/MRAL-k0 / KD of variant
row,Binder,relative mFcγRII-binding activity (mIgG1 = 1) [fold]
1,B8,0.22
2,B9,7.7
3,B10,13.9
4,B11,0.42
5,B12,3.15
6,B13,10.9
7,B14,0.24
8,B15,8.03
9,B16,1.11
10,B17,7.57
11,B18,14
12,B19,4.06
13,B20,1.63
14,B21,0.62
15,B22,2.66
16,B23,8.97
17,B24,0.84
18,B25,0.59
19,B26,3.83
20,B27,0.23
21,B28,0.81
22,B29,5.37
23,B30,3.14

# Biological target: T6, mouse FcγRIII extracellular domain, …
# Test: as above
row,Binder,relative mFcγRIII-binding activity (mIgG1 = 1) [fold]
1,B8,0.12
2,B9,0.9
3,B10,1.83
4,B11,0.13
5,B12,0.23
6,B13,0.84
7,B14,0.06
8,B15,2.01
9,B16,0.09
10,B17,1.68
11,B18,2.14
12,B19,0.57
13,B20,0.13
14,B21,0.16
15,B22,0.32
16,B23,1.75
17,B24,0.15
18,B25,0.14
19,B26,0.4
20,B27,0.07
21,B28,0.3
22,B29,1.02
23,B30,0.18
